This series deals with the molecule itself. The experiment in a line: SEC; Superdex 200 on an ÄKTA FPLC at 4°C, PBS with 10% glycerol (pH 7.4), flow 0.35 ml/min; recombinant proteins released from GST with PreScission. Background: In gel filtration, larger molecules generally elute earlier.

We go through 3 proteins from PMC3747146 (PLoS ONE, 2013).

B1: MALT1(Casp-like), wildtype isolated protease domain (aa 333-566) (domain or fragment, UniProt Q9UDY8 333-566, looked up)
chain: QTTDQPLAKDKVALLIGNMNYREHPKLKAPLVDVYELTNLLRQLDFKVVSLLDLTEYEMRNAVDEFLLLLDKGVYGLLYYAGHGYENFGNSFMVPVDAPNPYRSENCLCVQNILKLMQEKETGLNVFLLDMCRKRNDYDDTIPILDALKVTANIVFGYATCQGAEAFEIQHSGLANGIFMKFLKDRLLEDKKITVLLDEVAEDMGKCHLTKGKQALEIRSSLSEKRALTDPIQG
notes: MALT1 (paracaspase), isolated protease (caspase-like) domain, aa 333-566; also called Casp-like construct; MALT1 caspase-like domain; source: E. coli BL21, GST fusion purified on glutathione-Sepharose, released with PreScission enzyme
As usually defined, the stoichiometry N is the number of molecules, sites or subunits per partner or assembly. Turning to B1, the “stoichiometry N” value turned out to be 2.

B2: MALT1(ΔNT), wildtype protease domain and C-terminal extension (aa 333-824) (domain or fragment, UniProt Q9UDY8 333-824, looked up)
chain: QTTDQPLAKDKVALLIGNMNYREHPKLKAPLVDVYELTNLLRQLDFKVVSLLDLTEYEMRNAVDEFLLLLDKGVYGLLYYAGHGYENFGNSFMVPVDAPNPYRSENCLCVQNILKLMQEKETGLNVFLLDMCRKRNDYDDTIPILDALKVTANIVFGYATCQGAEAFEIQHSGLANGIFMKFLKDRLLEDKKITVLLDEVAEDMGKCHLTKGKQALEIRSSLSEKRALTDPIQGTEYSAESLVRNLQWAKAHELPESMCLKFDCGVQIQLGFAAEFSNVMIIYTSIVYKPPEIIMCDAYVTDFPLDLDIDPKDANKGTPEETGSYLVSKDLPKHCLYTRLSSLQKLKEHLVFTVCLSYQYSGLEDTVEDKQEVNVGKPLIAKLDMHRGLGRKTCFQTCLMSNGPYQSSAATSGGAGHYHSLQDPFHGVYHSHPGNPSNVTPADSCHCSRTPDAFISSFAHHASCHFSRSNVPVETTDEIPFSFSDRLRISEK
notes: MALT1 (paracaspase), protease domain and C-terminal extension, aa 333-824; also called ΔNT construct; source: E. coli BL21, GST fusion purified on glutathione-Sepharose, released with PreScission enzyme
In the case of B2, the binding result is recorded as “binds”.

B3: MALT1(ΔNT) E549A, protease domain and C-terminal extension (aa 333-824) (domain or fragment, UniProt Q9UDY8 333-824, looked up)
chain: QTTDQPLAKDKVALLIGNMNYREHPKLKAPLVDVYELTNLLRQLDFKVVSLLDLTEYEMRNAVDEFLLLLDKGVYGLLYYAGHGYENFGNSFMVPVDAPNPYRSENCLCVQNILKLMQEKETGLNVFLLDMCRKRNDYDDTIPILDALKVTANIVFGYATCQGAEAFEIQHSGLANGIFMKFLKDRLLEDKKITVLLDEVAEDMGKCHLTKGKQALAIRSSLSEKRALTDPIQGTEYSAESLVRNLQWAKAHELPESMCLKFDCGVQIQLGFAAEFSNVMIIYTSIVYKPPEIIMCDAYVTDFPLDLDIDPKDANKGTPEETGSYLVSKDLPKHCLYTRLSSLQKLKEHLVFTVCLSYQYSGLEDTVEDKQEVNVGKPLIAKLDMHRGLGRKTCFQTCLMSNGPYQSSAATSGGAGHYHSLQDPFHGVYHSHPGNPSNVTPADSCHCSRTPDAFISSFAHHASCHFSRSNVPVETTDEIPFSFSDRLRISEK
notes: MALT1 (paracaspase), protease domain and C-terminal extension, aa 333-824, with E549A; source: E. coli BL21, GST fusion purified on glutathione-Sepharose, released with PreScission enzyme
Turning to B3, the binding result is recorded as “binds”.
